Results: article PMC6817756
Blank lines part the entries; values can stand above or below the molecule they belong to.

Key:
ME-47 = assay: fluorescence polarization; settings: FP: 10 mM Tris-HCl, 50 mM KCl, 1 mM EDTA, 5 mM MgCl2, 10 mM DTT, 2 nM DNA stock mixed 20 ul + 20 ul protein, 30 min, pH and temperature not stated; pulldown: …
[1] = molecular target: Omomyc (recombinant, bacterially expressed) (UniProt P01106); assay: native gel or EMSA; native gel electrophoresis of purified recombinant Omomyc (the legend of Fig. 1A speaks of SDS-PAGE under nonreduced and reduced conditions)
[2] = molecular target: Omomyc (recombinant, bacterially expressed) (UniProt P01106); assay: SEC; size exclusion chromatography of purified Omomyc, data not shown
[3] = molecular target: Myc (human (endogenous in HCT116)) (UniProt P01106)
[4] = molecular target: T1, MAX bHLH peptide (MAX/MAX) (UniProt P61244 22-103); assay: fluorescence polarization; text: fails to bind; FP: 10 mM Tris-HCl, 50 mM KCl, 1 mM EDTA, 5 mM MgCl2, 10 mM DTT, 2 nM DNA stock mixed 20 ul + 20 ul protein, 30 min, pH and temperature not stated; pulldown: 50 mM Tris-HCl pH 7.5, 5% glycerol, 1.5 mM MgCl2, 150 mM NaCl, 1 mM DTT, IGEPAL, 4 C; settings: chain copies: 2; label: 5'-FAM; blunt
[5] = molecular target: MYC bHLH peptide (MYC/MYC) (UniProt P01106 365-454); assay: fluorescence polarization; table heading: affinity; FP: 10 mM Tris-HCl, 50 mM KCl, 1 mM EDTA, 5 mM MgCl2, 10 mM DTT, 2 nM DNA stock mixed 20 ul + 20 ul protein, 30 min, pH and temperature not stated; pulldown: 50 mM Tris-HCl pH 7.5, 5% glycerol, 1.5 mM MgCl2, 150 mM NaCl, 1 mM DTT, IGEPAL, 4 C; settings: chain copies: 2, blunt
[6] = molecular target: MYC bHLH peptide (in MYC/MAX);MAX bHLH peptide (in MYC/MAX) (;, UniProt P01106;P61244 365-454;22-103, |); assay: as above; settings: tags: ;, copies: 1;1, blunt
[7] = molecular target: T2, Omomyc (synthetic or recombinant) (UniProt P01106 365-454, E425T;E432I;R438Q;R439N); assay: as above; settings: chain copies: 2, blunt
[8] = molecular target: T2, Omomyc (synthetic or recombinant); assay: fluorescence polarization; synthetic Omomyc; FP: 10 mM Tris-HCl, 50 mM KCl, 1 mM EDTA, 5 mM MgCl2, 10 mM DTT, 2 nM DNA stock mixed 20 ul + 20 ul protein, 30 min, pH and temperature not stated; pulldown: 50 mM Tris-HCl pH 7.5, 5% glycerol, 1.5 mM MgCl2, 150 mM NaCl, 1 mM DTT, IGEPAL, 4 C; settings: chain copies: 2; blunt
[9] = molecular target: T1, MAX bHLH peptide (MAX/MAX); assay: fluorescence polarization; table heading: affinity; FP: 10 mM Tris-HCl, 50 mM KCl, 1 mM EDTA, 5 mM MgCl2, 10 mM DTT, 2 nM DNA stock mixed 20 ul + 20 ul protein, 30 min, pH and temperature not stated; pulldown: 50 mM Tris-HCl pH 7.5, 5% glycerol, 1.5 mM MgCl2, 150 mM NaCl, 1 mM DTT, IGEPAL, 4 C; settings: chain copies: 2; blunt

Molecule: CCCCCACCACGCGGTGCCTGA (double strand) [VEGFA-2 E box]
- Kd (ME-47): 3110 nM

Molecule: CCCCCACCACCTGGTGCCTGA (double strand) [VEGFA-1 E box]
- Kd (ME-47): 1080 nM

- stoichiometry N [1]: 2
- stoichiometry N [2]: 2
- cellular thermal shift assay (CETSA) in Ramos cell lysates with 20 μM Omomyc: change in the aggregation temperature (Tagg) of Myc (destabilisation) [3]: 6 °C
- cellular thermal shift assay (CETSA), isothermal dose-response fingerprint at 54°C in Ramos cell lysates: EC50 of Omomyc for thermal destabilisation of Myc [3]: 16000 nM
Molecule: Omomyc (recombinant, bacterially expressed) (from UniProt P01106 369-421) (domain or fragment)

Molecule: CCCCCACCACGTGGTGCCTGA (double strand) [E box DNA (FP probe)]
- Kd (ME-47): 117 nM

B1: VEGFA-1 E box (dsDNA)
DNA 1: CCCCCACCACCTGGTGCCTGA
DNA 2: TCAGGCACCAGGTGGTGGGGG
- Kd [4]: 3390 nM
- Kd ([5]; label: 5'-FAM): 140 nM
- Kd ([6]; label: 5'-FAM): 397 nM
- Kd ([7]; label: 5'-FAM): 103 nM

B2: VEGFA-2 E box (dsDNA)
DNA 1: CCCCCACCACGCGGTGCCTGA
DNA 2: TCAGGCACCGCGTGGTGGGGG
- Kd [4]: 2020 nM
- Kd ([5]; label: 5'-FAM): 111 nM
- Kd ([6]; label: 5'-FAM): 451 nM
- Kd ([7]; label: 5'-FAM): 99.2 nM

B3: E box DNA (FP probe) (dsDNA)
DNA 1: CCCCCACCACGTGGTGCCTGA
DNA 2: TCAGGCACCACGTGGTGGGGG
- Kd [8]: ~22 nM
- Kd [5]: 159 nM
- Kd [6]: 71.4 nM
- Kd [9]: 258 nM
- Kd [7]: 107 nM
